Test results as given in patent US20200184403A1 (DOW AGROSCIENCES, published 2020).

Molecular target: the molecule itself
Assay: SDS-PAGE of undigested full-length DIG-177 (self-association)
Protocol: SDS-PAGE was run following the protocol NuPAGE Bis-Tris gels from Invitrogen Life technologies (Protocol Pub. No. MAN0007894 Rev. A.0, Ref.2). Briefly, samples were mixed with denaturing sample buffer (Invitrogen) plus 5 mM DTT (for reducing PAGE) or minus DTT (for non reducing PAGE) and heated at 95° C. for 5 minutes. The samples were loaded onto Invitrogen Bis/Tris gel. The gel was run with MOPS or MES running buffer under 200 V for ˜43 minutes. The gel was stained with Coomassie blue staining solution (Bio-Rad) for 30 minutes and de-stained with de-staining solution (7% Acetic acid and 5% Methanol in water) until the background cleared.

B1: DIG-177 (full length wild type Cry6Aa) (other)
chain: MIIDSKTTLPRHSLIHTIKLNSNKKYGPGDMTNGNQFIISKQEWATIGAYIQTGLGLPVNEQQLRTHVNLSQDISIPSDFSQLYDVYCSDKTSAEWWNKNLYPLIIKSANDIASYGFKVAGDPSIKKDGYFKKLQDELDNIVDNNSDDDAIAKAIKDFKARCGILIKEAKQYEEAAKNIVTSLDQFLHGDQKKLEGVINIQKRLKEVQTALNQAHGESSPAHKELLEKVKNLKTTLERTIKAEQDLEKKVEYSFLLGPLLGFVVYEILENTAVQHIKNQIDEIKKQLDSAQHDLDRDVKIIGMLNSINTDIDNLYSQGQEAIKVFQKLQGIWATIGAQIENLRTTSLQEVQDSDDADEIQIELEDASDAWLVVAQEARDFTLNAYSTNSRQNLPINVISDSCNCSTTNMTSNQYSNPTTNMTSNQYMISHEYTSLPNNFMLSRNSNLEYKCPENNFMIYWYNNSDWYNNSDWYNN
notes: Recombinant, produced in Pseudomonas fluorescens (standard) or in maize cells (Western blots)
  binding result: binds
